Literature values as cited in paper PMC2910649.

Molecular target: VEGFR2 (Homo sapiens) (UniProt P35968)
Sequence of UniProt P35968 (P35968 20-1356): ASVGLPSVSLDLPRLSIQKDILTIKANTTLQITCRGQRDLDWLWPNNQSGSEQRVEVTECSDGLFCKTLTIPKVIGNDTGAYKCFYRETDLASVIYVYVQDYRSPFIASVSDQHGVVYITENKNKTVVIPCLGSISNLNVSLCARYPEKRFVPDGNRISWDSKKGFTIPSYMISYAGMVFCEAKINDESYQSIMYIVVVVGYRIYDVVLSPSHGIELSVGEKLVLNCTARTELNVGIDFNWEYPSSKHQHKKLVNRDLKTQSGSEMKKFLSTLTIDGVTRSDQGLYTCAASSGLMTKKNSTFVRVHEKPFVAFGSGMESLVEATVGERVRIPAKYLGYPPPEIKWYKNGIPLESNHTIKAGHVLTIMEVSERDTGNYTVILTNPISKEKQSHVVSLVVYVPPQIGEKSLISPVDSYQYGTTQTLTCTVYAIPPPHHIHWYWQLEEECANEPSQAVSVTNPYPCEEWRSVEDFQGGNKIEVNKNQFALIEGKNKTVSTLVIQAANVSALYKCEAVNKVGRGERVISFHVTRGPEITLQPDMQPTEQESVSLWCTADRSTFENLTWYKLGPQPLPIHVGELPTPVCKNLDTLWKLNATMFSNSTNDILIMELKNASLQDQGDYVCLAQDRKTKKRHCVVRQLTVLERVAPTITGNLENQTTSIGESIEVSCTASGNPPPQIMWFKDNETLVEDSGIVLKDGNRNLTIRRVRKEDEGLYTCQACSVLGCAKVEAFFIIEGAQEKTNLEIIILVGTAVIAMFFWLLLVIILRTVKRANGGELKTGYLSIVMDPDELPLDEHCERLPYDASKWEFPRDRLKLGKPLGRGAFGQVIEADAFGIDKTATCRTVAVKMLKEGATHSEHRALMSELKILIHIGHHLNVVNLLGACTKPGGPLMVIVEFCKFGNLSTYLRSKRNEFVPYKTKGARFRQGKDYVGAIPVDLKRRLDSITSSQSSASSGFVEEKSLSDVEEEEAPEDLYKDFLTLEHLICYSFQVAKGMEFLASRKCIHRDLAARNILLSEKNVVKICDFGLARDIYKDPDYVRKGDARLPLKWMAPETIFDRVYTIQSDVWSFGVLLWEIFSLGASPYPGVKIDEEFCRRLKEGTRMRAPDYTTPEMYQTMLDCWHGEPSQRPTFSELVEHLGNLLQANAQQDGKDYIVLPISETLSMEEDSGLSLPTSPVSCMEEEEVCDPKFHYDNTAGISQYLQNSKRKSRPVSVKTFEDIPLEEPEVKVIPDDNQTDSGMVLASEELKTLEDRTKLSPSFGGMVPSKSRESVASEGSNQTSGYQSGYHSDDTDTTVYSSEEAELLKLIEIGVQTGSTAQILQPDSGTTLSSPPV

In the case of VEGF-A165 (from UniProt P15692), the Kd is given as 210 pM.
